Test results published in the supplement of paper PMC9170038.

Tested on: K4 kissing-loop RNA reporter
Assay: apparent KD of K4 kissing-loop reporter; higher = weaker reporter binding
Details: Eterna round: R107
Experimental: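 RNA-MaP round R107: designed RNA switches with theophylline, tryptophan, arginine or FMN aptamers are transcribed on-chip within common flanks. They are titrated with a labelled K4 kissing-loop RNA reporter in RNA-MaP buffer (100 mM Tris pH 7.5, 80 mM KCl, 4 mM MgCl2), without ligand or with the indicated ligand. Median apparent KD per design.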

[1] = input ligand: theophylline 20 uM
[2] = input ligand: tryptophan 2.4 mM
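Also: bound reporter read as fluorescence of individual clusters on recovered sequencing chips by microscopy, with normalized cluster intensities fitted with a binding model.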

| Sequence | apparent KD of K4 kissing-loop reporter (input ligand: FMN 200 uM) | apparent KD of K4 kissing-loop reporter (input ligand: arginine 13.2 mM) | apparent KD of K4 kissing-loop reporter (input ligand: none) | apparent KD of K4 kissing-loop reporter [1] | apparent KD of K4 kissing-loop reporter [2] |
| --- | --- | --- | --- | --- | --- |
| UGAUAGGAGAGAAGGAGCGGGAGUGAUGUUCCCAAAGAUUGGUCUAGCAAAGCUGGACCCUCCCAGGUAGGUCGCUCUCCUAUCU [KL-XARG-B16] | 382 nM | 419 nM | 434 nM | 405 nM | 357 nM |
| AAAACUCCGGGUAGUGAUGUUACCUAGGAUACCAGUAUCGCAACAUACCCUUGGCAGCCUCUUCCUGCUGGCGUCGCUUGGCCUA [theeternabot_exclusion_KL_Theo_A_42] | 95.2 nM | 80.5 nM | 90.8 nM | 91.9 nM | 75.1 nM |
| AAAAUAAUCCAGUGAUGUUGGUAUCCAGAUACCAGCCACGAAAGUGGCCCUUGGCAGCUGUAGGACGUACAAAUAAGUACGUCCA [#OpenEnded 7 #StaticStem #K4Early] | 361 nM | 175 nM | 345 nM | 486 nM | 444 nM |
| AGGAUGUAGUGAUGUUAUAUAAGAAGUAGACGAGGACCGGUACGGCCGCCACUCGAAACGGCUACUAGCGCGUUGCGAGGUGUGC [ExTryptoA.Cg] | 576 nM | 435 nM | 476 nM | 468 nM | 326 nM |
| GGAUAGGACAGAGGAUAUGGUAGUGAUGUUACCAAACUGGUUACUAAUGUCAGAAAACUGGCAAAUCCAGAAGGCUGUCCUAUCG [KL-XFMN-B13] | 278 nM | 76.3 nM | 85.2 nM | 69.5 nM | 82.3 nM |
| AAUAAAAUCACGGCCGCCACUGAUUUUUUUAUUAGGAGUGAUGUUCCUAUGACUAUAUUAUUUAACAGGACCGGGUGAAUAUUUA [JR_SSTryptoB_Sub023] | 79.6 nM | 97.5 nM | 87.4 nM | 93.3 nM | 74.5 nM |
| UGUCAUUGGUCGGCCGCCACUUCAUGUAGAGUGAUGUUCUGUAAGACGGAUCGAAAGAUCUGUCGAAGGACCGGGACCGAUGACU [FiskerMod 13 - Jieux - Same State - Tryptophan B] | 1090 nM | 303 nM | 855 nM | 868 nM | 326 nM |
| UGGACGUUAUACAAUAAGUAUAACUGGGAUACCAGUGACGAAAGUCACCCUUGGCAGCUCAACUGCCAGUGAUGUUGGUAGUCCA [Astros-Eli-mod#5] | 273 nM | 116 nM | 200 nM | 235 nM | 161 nM |
| ACCAUUUUACCGGCAGUAGUGAUGUUACUCCGAGGACCGGUACGGCCGCCACUCGCGAACGUAGGGUCGCGCACUCAAAGAGUGC | 100 nM | 75.6 nM | 106 nM | 67 nM | 89.7 nM |
| AGACUACCACACUGUCAAUAGACAGUGGACUAGGAUAUGCUGAUAAGCAGAAGGAGUGAUGUUCCUAGGUAGUCAAUAAAAUAAU [FmnAX 13 G28] | 357 nM | 301 nM | 378 nM | 532 nM | 396 nM |
| AAUAUAGUGAUGUUAUAUAAGAAGGAGUUACGAGGACCGGUACGGCCGCCACUCGAAACGAGUGAGGAUUUGGGAGAUUGGGUUU [SSTryptA.M] | 493 nM | 443 nM | 474 nM | 324 nM | 389 nM |
| UUACGGUCCUCGGCCGCCACUCAUAGUGAUGUUAUGCUGCCUGAAGGCACCGGACCUGGAUAUCAGAGGACCGGGAGGCCAUUCG [theeternabot_exclusion_KL_Trp_B_6] | 793 nM | 590 nM | 810 nM | 560 nM | 544 nM |
| UUUAAAUAUAGUGAUGUUAUAUAACAAUGACGAGGACCGGUACGGCCGCCACUCGAGAGAGAUAAUGGUCGUUAGAAUCUAACGC [AstrosSSTryA#5] | 760 nM | 778 nM | 685 nM | 963 nM | 484 nM |
| GGAGGGAUCUCGGCCGCCACUCAUAAGAAAUGAACCUCAGAAAUAUAGUGAUGUUAUAUAAAGAAGAGGACCGGGAGAAAGGAGG [ExTryptoB.B] | 167 nM | 137 nM | 161 nM | 158 nM | 168 nM |
| GUUUUAUAAGAGGAUACCAGUACAAAUAAAGUACAUUAAUAGUAGAGUGAUGUUCUAAAGUACCCUUGGCAGCUUAGAUUAAGUU [ExTheophylB.E] | 147 nM | 236 nM | 170 nM | 252 nM | 116 nM |
| CGGAUGUAGUGAUGUUAUAUAAGAUGUAGACGAGGACCGGUACGGCCGCCACUCGAAACGGCUACUAGCGCGUUGCGAGGUGUGC [ExTryptoA.CI] | 952 nM | 460 nM | 960 nM | 674 nM | 514 nM |
| CUGGGUUGACGAAAAGUCAACAAAAGAGAAGGAGCGCACGAAAGUGCAGGUAGGUCGCUCAAUCCAGUGAUGUUGGGUCGUCCAG [#OpenEnded 11 #K4Late] | 279 nM | 192 nM | 284 nM | 285 nM | 222 nM |
| GCAUGACGGUAAGGAUAUAGAUAAUCCUUAUAUACGUCGAGUGAUGUUCGAUGUGCCAAGGCACAUCUAGAAGGUACUGUUAGGU [Same State FMN B GF 18] | 772 nM | 760 nM | 1020 nM | 725 nM | 873 nM |
| AACUCUCAGACACCUGAGUGAUGUUCAGGCCGAGGACCGGUACGGCCGCCACUCGGGUCUGAGAGAGGUUAUCAAAGAUAGCCAA [Omei KL Tryp A SS A v3] | 675 nM | 244 nM | 336 nM | 304 nM | 338 nM |
| UAUCUUUGCUGAAGGAGCGAGCAUGUUGGAGUGAUGUUCCGAGCGAGUGAUGUUCGCAUAGCUCAGGUAGGUCGCAGUGGGAGGA [Same State Arginie B GF 16] | 129 nM | 111 nM | 147 nM | 164 nM | 135 nM |
| GUAAGAUGAGGAGGAGGAUGAAUUACUGAAGGAGCGCAUAUAAAUGCAGGUAGGUCGCGGUAAAGAAGUAUAGUGAUGUUAUAUA [#20 K4 Arginine A Same State] | 452 nM | 508 nM | 464 nM | 459 nM | 474 nM |
| AAAUAGAUCAGUCAACCAGUGAUGUUGGAAGGAGCGUGCGAAAGCACAGGUAGGUCGCCAGAAUAAAAGUGGCUGAUCAAAAUAA | 357 nM | 384 nM | 374 nM | 508 nM | 214 nM |
